Experimental data as given in paper PMC12514245, “Impaired migration and lung invasion of human melanoma by a novel small molecule targeting the transmembrane domain of death receptor p75^NTR” (EMBO Molecular Medicine, 2025).

B1: p75^NTR TMD-AraTM chimera, wild type (MBP - p75^NTR TMD - AraC) [human] / itself (parent)
chain: NLIPVYCSILAAVVVGLVAYIAFKRW

Variants of: B1
Test: AraTM assay
Conditions: with itself, 100% = WT TMD without drug, read off a plot

Row | percent of parent (7.5 µM Div17E5) | percent of parent (15 µM Div17E5) | percent of parent (20 µM Div17E5) | percent of parent (50 µM Div17E5) | percent of parent (no drug (0 µM Div17E5)) | Variant
1 | 97% | 97% | 97% | 100% | 100% | NLAPVYCSILAAVVVGLVAYIAFKRW [chain 1 I3A]
2 | 92% | 93% | 95% | 92% | 97% | NLIPAYCSILAAVVVGLVAYIAFKRW [chain 1 V5A]
3 | 68% | 65% | 55% | 57% | 100% | NLIGVYCSILAAVVVGLVAYIAFKRW [chain 1 P4G]
